Positions of bridges follow the written chain, without caps; N, C: chain ends. Non-standard residues stand in square brackets, D forms with d. Trp(1-Me) = Cn1cc(C[C@H](N)C(=O)O)c2ccccc21; 1Nal = N[C@@H](Cc1cccc2ccccc12)C(=O)O; 2Nal = N[C@@H](Cc1ccc2ccccc2c1)C(=O)O; Sar = CNCC(=O)O
B1: Compound 81 (peptide)
peptide: Ac-SE[Sar]CI[Trp(1-Me)]QDWGEHRC[Sar]EA-NH2
modifications: disulfide 4-14
SMILES: CC[C@H](C)[C@@H]1NC(=O)[C@@H](NC(=O)CN(C)C(=O)[C@H](CCC(=O)O)NC(=O)[C@H](CO)NC(C)=O)CSSC[C@@H](C(=O)N(C)CC(=O)N[C@@H](CCC(=O)O)C(=O)N[C@@H](C)C(N)=O)NC(=O)[C@H](CCCNC(=N)N)NC(=O)[C@H](Cc2c[nH]cn2)NC(=O)[C@H](CCC(=O)O)NC(=O)CNC(=O)[C@H](Cc2c[nH]c3ccccc23)NC(=O)[C@H](CC(=O)O)NC(=O)[C@H](CCC(N)=O)NC(=O)[C@H](Cc2cn(C)c3ccccc23)NC1=O
B2: Compound 67 (peptide)
peptide: Ac-SEFCI[Trp(1-Me)]QDWGEHRCTGAES-NH2
modifications: disulfide 4-14
SMILES: CC[C@H](C)[C@@H]1NC(=O)[C@@H](NC(=O)[C@H](Cc2ccccc2)NC(=O)[C@H](CCC(=O)O)NC(=O)[C@H](CO)NC(C)=O)CSSC[C@@H](C(=O)N[C@H](C(=O)NCC(=O)N[C@@H](C)C(=O)N[C@@H](CCC(=O)O)C(=O)N[C@@H](CO)C(N)=O)[C@@H](C)O)NC(=O)[C@H](CCCNC(=N)N)NC(=O)[C@H](Cc2c[nH]cn2)NC(=O)[C@H](CCC(=O)O)NC(=O)CNC(=O)[C@H](Cc2c[nH]c3ccccc23)NC(=O)[C@H](CC(=O)O)NC(=O)[C@H](CCC(N)=O)NC(=O)[C@H](Cc2cn(C)c3ccccc23)NC1=O
B3: Compound 73 (peptide)
peptide: H-[dY]FCI[Trp(1-Me)]QDW[Sar]EHRCTGAES-NH2
modifications: disulfide 3-13
SMILES: CC[C@H](C)[C@@H]1NC(=O)[C@@H](NC(=O)[C@H](Cc2ccccc2)NC(=O)[C@H](N)Cc2ccc(O)cc2)CSSC[C@@H](C(=O)N[C@H](C(=O)NCC(=O)N[C@@H](C)C(=O)N[C@@H](CCC(=O)O)C(=O)N[C@@H](CO)C(N)=O)[C@@H](C)O)NC(=O)[C@H](CCCNC(=N)N)NC(=O)[C@H](Cc2c[nH]cn2)NC(=O)[C@H](CCC(=O)O)NC(=O)CN(C)C(=O)[C@H](Cc2c[nH]c3ccccc23)NC(=O)[C@H](CC(=O)O)NC(=O)[C@H](CCC(N)=O)NC(=O)[C@H](Cc2cn(C)c3ccccc23)NC1=O
B4: Compound 85 (peptide)
peptide: Ac-EFCI[Trp(1-Me)]QDWGEHRCES-NH2
modifications: disulfide 3-13
SMILES: CC[C@H](C)[C@@H]1NC(=O)[C@@H](NC(=O)[C@H](Cc2ccccc2)NC(=O)[C@H](CCC(=O)O)NC(C)=O)CSSC[C@@H](C(=O)N[C@@H](CCC(=O)O)C(=O)N[C@@H](CO)C(N)=O)NC(=O)[C@H](CCCNC(=N)N)NC(=O)[C@H](Cc2c[nH]cn2)NC(=O)[C@H](CCC(=O)O)NC(=O)CNC(=O)[C@H](Cc2c[nH]c3ccccc23)NC(=O)[C@H](CC(=O)O)NC(=O)[C@H](CCC(N)=O)NC(=O)[C@H](Cc2cn(C)c3ccccc23)NC1=O
B5: Compound 61 (peptide)
peptide: Ac-FCI[Trp(1-Me)]QDWGEHRCTGAES-NH2
modifications: disulfide 2-12
SMILES: CC[C@H](C)[C@@H]1NC(=O)[C@@H](NC(=O)[C@H](Cc2ccccc2)NC(C)=O)CSSC[C@@H](C(=O)N[C@H](C(=O)NCC(=O)N[C@@H](C)C(=O)N[C@@H](CCC(=O)O)C(=O)N[C@@H](CO)C(N)=O)[C@@H](C)O)NC(=O)[C@H](CCCNC(=N)N)NC(=O)[C@H](Cc2c[nH]cn2)NC(=O)[C@H](CCC(=O)O)NC(=O)CNC(=O)[C@H](Cc2c[nH]c3ccccc23)NC(=O)[C@H](CC(=O)O)NC(=O)[C@H](CCC(N)=O)NC(=O)[C@H](Cc2cn(C)c3ccccc23)NC1=O
B6: Compound 29 (peptide)
peptide: Ac-EGSAICIWQDWGEHRCT-NH2
modifications: disulfide 6-16
SMILES: CC[C@H](C)[C@H](NC(=O)[C@H](C)NC(=O)[C@H](CO)NC(=O)CNC(=O)[C@H](CCC(=O)O)NC(C)=O)C(=O)N[C@H]1CSSC[C@@H](C(=O)N[C@H](C(N)=O)[C@@H](C)O)NC(=O)[C@H](CCCNC(=N)N)NC(=O)[C@H](Cc2c[nH]cn2)NC(=O)[C@H](CCC(=O)O)NC(=O)CNC(=O)[C@H](Cc2c[nH]c3ccccc23)NC(=O)[C@H](CC(=O)O)NC(=O)[C@H](CCC(N)=O)NC(=O)[C@H](Cc2c[nH]c3ccccc23)NC(=O)[C@H]([C@@H](C)CC)NC1=O
B7: Compound 43 (peptide)
peptide: Ac-FCIWQDWGEHRCTGAE-NH2
modifications: disulfide 2-12
SMILES: CC[C@H](C)[C@@H]1NC(=O)[C@@H](NC(=O)[C@H](Cc2ccccc2)NC(C)=O)CSSC[C@@H](C(=O)N[C@H](C(=O)NCC(=O)N[C@@H](C)C(=O)N[C@@H](CCC(=O)O)C(N)=O)[C@@H](C)O)NC(=O)[C@H](CCCNC(=N)N)NC(=O)[C@H](Cc2c[nH]cn2)NC(=O)[C@H](CCC(=O)O)NC(=O)CNC(=O)[C@H](Cc2c[nH]c3ccccc23)NC(=O)[C@H](CC(=O)O)NC(=O)[C@H](CCC(N)=O)NC(=O)[C@H](Cc2c[nH]c3ccccc23)NC1=O
B8: Compound 49 (peptide)
peptide: Ac-EGSAICI[Trp(1-Me)]QDWGEHRC[Sar]E-NH2
modifications: disulfide 6-16
SMILES: CC[C@H](C)[C@H](NC(=O)[C@H](C)NC(=O)[C@H](CO)NC(=O)CNC(=O)[C@H](CCC(=O)O)NC(C)=O)C(=O)N[C@H]1CSSC[C@@H](C(=O)N(C)CC(=O)N[C@@H](CCC(=O)O)C(N)=O)NC(=O)[C@H](CCCNC(=N)N)NC(=O)[C@H](Cc2c[nH]cn2)NC(=O)[C@H](CCC(=O)O)NC(=O)CNC(=O)[C@H](Cc2c[nH]c3ccccc23)NC(=O)[C@H](CC(=O)O)NC(=O)[C@H](CCC(N)=O)NC(=O)[C@H](Cc2cn(C)c3ccccc23)NC(=O)[C@H]([C@@H](C)CC)NC1=O
B9: Compound 50 (peptide)
peptide: Ac-EGSAICI[2Nal]QDWGEHRC[Sar]E-NH2
modifications: disulfide 6-16
SMILES: CC[C@H](C)[C@H](NC(=O)[C@H](C)NC(=O)[C@H](CO)NC(=O)CNC(=O)[C@H](CCC(=O)O)NC(C)=O)C(=O)N[C@H]1CSSC[C@@H](C(=O)N(C)CC(=O)N[C@@H](CCC(=O)O)C(N)=O)NC(=O)[C@H](CCCNC(=N)N)NC(=O)[C@H](Cc2c[nH]cn2)NC(=O)[C@H](CCC(=O)O)NC(=O)CNC(=O)[C@H](Cc2c[nH]c3ccccc23)NC(=O)[C@H](CC(=O)O)NC(=O)[C@H](CCC(N)=O)NC(=O)[C@H](Cc2ccc3ccccc3c2)NC(=O)[C@H]([C@@H](C)CC)NC1=O
B10: Compound 82 (peptide)
peptide: Ac-SE[Sar]CI[Trp(1-Me)]QDWGEHRCTEA-NH2
modifications: disulfide 4-14
SMILES: CC[C@H](C)[C@@H]1NC(=O)[C@@H](NC(=O)CN(C)C(=O)[C@H](CCC(=O)O)NC(=O)[C@H](CO)NC(C)=O)CSSC[C@@H](C(=O)N[C@H](C(=O)N[C@@H](CCC(=O)O)C(=O)N[C@@H](C)C(N)=O)[C@@H](C)O)NC(=O)[C@H](CCCNC(=N)N)NC(=O)[C@H](Cc2c[nH]cn2)NC(=O)[C@H](CCC(=O)O)NC(=O)CNC(=O)[C@H](Cc2c[nH]c3ccccc23)NC(=O)[C@H](CC(=O)O)NC(=O)[C@H](CCC(N)=O)NC(=O)[C@H](Cc2cn(C)c3ccccc23)NC1=O
B11: Compound 63 (peptide)
peptide: Ac-FCI[1Nal]QDWGEHRCTGAES-NH2
modifications: disulfide 2-12
SMILES: CC[C@H](C)[C@@H]1NC(=O)[C@@H](NC(=O)[C@H](Cc2ccccc2)NC(C)=O)CSSC[C@@H](C(=O)N[C@H](C(=O)NCC(=O)N[C@@H](C)C(=O)N[C@@H](CCC(=O)O)C(=O)N[C@@H](CO)C(N)=O)[C@@H](C)O)NC(=O)[C@H](CCCNC(=N)N)NC(=O)[C@H](Cc2c[nH]cn2)NC(=O)[C@H](CCC(=O)O)NC(=O)CNC(=O)[C@H](Cc2c[nH]c3ccccc23)NC(=O)[C@H](CC(=O)O)NC(=O)[C@H](CCC(N)=O)NC(=O)[C@H](Cc2cccc3ccccc23)NC1=O
B12: Compound 75 (peptide)
peptide: Ac-SEFCI[Trp(1-Me)]QDWGEHRC[Sar]EA-NH2
modifications: disulfide 4-14
SMILES: CC[C@H](C)[C@@H]1NC(=O)[C@@H](NC(=O)[C@H](Cc2ccccc2)NC(=O)[C@H](CCC(=O)O)NC(=O)[C@H](CO)NC(C)=O)CSSC[C@@H](C(=O)N(C)CC(=O)N[C@@H](CCC(=O)O)C(=O)N[C@@H](C)C(N)=O)NC(=O)[C@H](CCCNC(=N)N)NC(=O)[C@H](Cc2c[nH]cn2)NC(=O)[C@H](CCC(=O)O)NC(=O)CNC(=O)[C@H](Cc2c[nH]c3ccccc23)NC(=O)[C@H](CC(=O)O)NC(=O)[C@H](CCC(N)=O)NC(=O)[C@H](Cc2cn(C)c3ccccc23)NC1=O
B13: Compound 86 (peptide)
peptide: Ac-SEFCI[Trp(1-Me)]QDWGEHKC[Sar]EA-NH2
modifications: disulfide 4-14
SMILES: CC[C@H](C)[C@@H]1NC(=O)[C@@H](NC(=O)[C@H](Cc2ccccc2)NC(=O)[C@H](CCC(=O)O)NC(=O)[C@H](CO)NC(C)=O)CSSC[C@@H](C(=O)N(C)CC(=O)N[C@@H](CCC(=O)O)C(=O)N[C@@H](C)C(N)=O)NC(=O)[C@H](CCCCN)NC(=O)[C@H](Cc2c[nH]cn2)NC(=O)[C@H](CCC(=O)O)NC(=O)CNC(=O)[C@H](Cc2c[nH]c3ccccc23)NC(=O)[C@H](CC(=O)O)NC(=O)[C@H](CCC(N)=O)NC(=O)[C@H](Cc2cn(C)c3ccccc23)NC1=O

These binders were tested against T1, Human C3 (Complement tech cat #A113c) (human, UniProt P01024 23-1663) (assay: cell-based or functional assay).
T1 sequence (P01024 23-1663 limits assumed): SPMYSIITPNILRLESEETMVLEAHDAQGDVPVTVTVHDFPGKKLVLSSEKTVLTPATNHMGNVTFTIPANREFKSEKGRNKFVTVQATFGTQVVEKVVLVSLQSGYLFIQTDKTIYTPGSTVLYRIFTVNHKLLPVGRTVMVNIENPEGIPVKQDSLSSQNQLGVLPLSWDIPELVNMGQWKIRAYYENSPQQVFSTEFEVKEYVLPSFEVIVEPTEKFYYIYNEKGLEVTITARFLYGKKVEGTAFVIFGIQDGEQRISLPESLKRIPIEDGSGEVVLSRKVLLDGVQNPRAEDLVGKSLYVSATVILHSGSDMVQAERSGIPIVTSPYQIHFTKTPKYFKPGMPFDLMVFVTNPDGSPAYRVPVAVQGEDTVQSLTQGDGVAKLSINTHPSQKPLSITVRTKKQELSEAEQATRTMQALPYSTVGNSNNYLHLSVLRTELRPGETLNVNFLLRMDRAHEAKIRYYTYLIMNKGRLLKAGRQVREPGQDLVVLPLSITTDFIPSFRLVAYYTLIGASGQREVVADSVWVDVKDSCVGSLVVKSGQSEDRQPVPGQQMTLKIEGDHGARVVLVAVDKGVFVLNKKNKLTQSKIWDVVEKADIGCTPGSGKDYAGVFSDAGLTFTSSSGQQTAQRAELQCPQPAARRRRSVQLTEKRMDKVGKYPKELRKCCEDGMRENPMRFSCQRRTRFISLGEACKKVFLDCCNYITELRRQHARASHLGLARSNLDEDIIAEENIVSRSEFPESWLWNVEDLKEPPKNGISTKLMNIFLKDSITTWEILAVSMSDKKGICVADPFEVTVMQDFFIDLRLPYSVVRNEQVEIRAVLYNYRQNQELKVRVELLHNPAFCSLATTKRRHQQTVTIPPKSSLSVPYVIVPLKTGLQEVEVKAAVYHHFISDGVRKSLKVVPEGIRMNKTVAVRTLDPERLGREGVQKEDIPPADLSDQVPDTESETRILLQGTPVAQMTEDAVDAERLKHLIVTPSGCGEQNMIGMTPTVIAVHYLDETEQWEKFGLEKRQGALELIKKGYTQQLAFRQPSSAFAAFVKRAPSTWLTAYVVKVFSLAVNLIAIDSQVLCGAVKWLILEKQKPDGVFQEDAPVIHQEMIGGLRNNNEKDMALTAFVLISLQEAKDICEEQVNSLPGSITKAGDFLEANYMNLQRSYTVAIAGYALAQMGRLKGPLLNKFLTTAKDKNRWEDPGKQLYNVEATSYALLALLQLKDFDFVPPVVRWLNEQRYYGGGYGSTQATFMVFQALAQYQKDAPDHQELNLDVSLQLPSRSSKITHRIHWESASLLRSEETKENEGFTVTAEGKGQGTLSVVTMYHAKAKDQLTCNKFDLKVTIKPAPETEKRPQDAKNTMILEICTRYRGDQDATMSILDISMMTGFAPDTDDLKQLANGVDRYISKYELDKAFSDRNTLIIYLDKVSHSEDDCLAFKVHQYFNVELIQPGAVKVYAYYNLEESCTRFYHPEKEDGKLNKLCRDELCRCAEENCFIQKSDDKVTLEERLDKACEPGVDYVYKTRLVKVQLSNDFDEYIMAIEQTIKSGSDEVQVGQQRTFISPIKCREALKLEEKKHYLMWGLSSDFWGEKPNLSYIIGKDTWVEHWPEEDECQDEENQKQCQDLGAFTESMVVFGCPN

Row | Binder | inhibition of hemolysis IC50 [nM]
1 | B1 | < 100
2 | B2 | < 100
3 | B3 | < 100
4 | B4 | < 100
5 | B5 | < 100
6 | B6 | < 100
7 | B7 | < 100
8 | B8 | < 100
9 | B9 | < 100
10 | B10 | < 100
11 | B11 | < 100
12 | B12 | < 100
13 | B13 | < 100

The binders below were run against T1, Human C3 (Complement tech cat #A113c) (assay: SPR (Biacore T200), human C3 immobilised, peptide injected, 1:1 fit).
How it was run: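 Human C3 amine-coupled on CM5 chips to about 3000 RU. Multi-cycle runs on Biacore T200 at 25° C: peptides at 6-8 rising concentrations, 60-120 s at 30 µL/min in 10 mM Tris pH 7.4, 150 mM NaCl, 0.05% Tween20, dissociation up to 10 min; 3 M MgCl2 regeneration. Kd derived.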

Row | Kd [nM] | Binder
14 | 9.7 | B1
15 | 0.68 | B2
16 | 0.3 | B3
17 | 1.3 | B4
18 | 0.33 | B5
19 | 21 | B6
20 | 3.3 | B7
21 | 3.2 | B8
22 | 13 | B9
23 | 5.4 | B10
24 | 4.3 | B11
25 | 1.5 | B12
26 | 2.6 | B13
